# Test results taken from IntAct's records for PubMed 29039417.
# B1: BBSome complex member BBS2 (Homo sapiens), Q9BXC9 (parent)
# chain: MLLPVFTLKLRHKISPRMVAIGRYDGTHPCLAAATQTGKVFIHNPHTRNQHVSASRVFQSPLESDVSLLSINQAVSCLTAGVLNPELGYDALLVGTQTNLLAYDVYNNSDLFYREVADGANAIVLGTLGDISSPLAIIGGNCALQGFNHEGSDLFWTVTGDNVNSLALCDFDGDGKKELLVGSEDFDIRVFKEDEIVAEMTETEIVTSLCPMYGSRFGYALSNGTVGVYDKTSRYWRIKSKNHAMSIHAFDLNSDGVNELITGWSNGKVDARSDRTGEVIFKDNFSSAIAGVVEGDYRMDGHIQLICCSVDGEIRGYLPGTAEMRGNLMDTSAEQDLIRELSQKKQNLLLELRNYEENAKAELASPLNEADGHRGIIPANTRLHTTLSVSLGNETQTAHTELRISTSNDTIIRAVLIFAEGIFTGESHVVHPSIHNLSSSICIPIVPPKDVPVDLHLKAFVGYRSSTQFHVFESTRQLPRFSMYALTSLDPASEPISYVNFTIAERAQRVVVWLGQNFLLPEDTHIQNAPFQVCFTSLRNGGHLHIKIKLSGEITINTDDIDLAGDIIQSMASFFAIEDLQVEADFPVYFEELRKVLVKVDEYHSVHQKLSADMADHSNLIRSLLVGAEDARLMRDMKTMKSRYMELYDLNRDLLNGYKIRCNNHTELLGNLKAVNQAIQRAGRLRVGKPKNQVITACRDAIRSNNINTLFKIMRVGTASS
# partner: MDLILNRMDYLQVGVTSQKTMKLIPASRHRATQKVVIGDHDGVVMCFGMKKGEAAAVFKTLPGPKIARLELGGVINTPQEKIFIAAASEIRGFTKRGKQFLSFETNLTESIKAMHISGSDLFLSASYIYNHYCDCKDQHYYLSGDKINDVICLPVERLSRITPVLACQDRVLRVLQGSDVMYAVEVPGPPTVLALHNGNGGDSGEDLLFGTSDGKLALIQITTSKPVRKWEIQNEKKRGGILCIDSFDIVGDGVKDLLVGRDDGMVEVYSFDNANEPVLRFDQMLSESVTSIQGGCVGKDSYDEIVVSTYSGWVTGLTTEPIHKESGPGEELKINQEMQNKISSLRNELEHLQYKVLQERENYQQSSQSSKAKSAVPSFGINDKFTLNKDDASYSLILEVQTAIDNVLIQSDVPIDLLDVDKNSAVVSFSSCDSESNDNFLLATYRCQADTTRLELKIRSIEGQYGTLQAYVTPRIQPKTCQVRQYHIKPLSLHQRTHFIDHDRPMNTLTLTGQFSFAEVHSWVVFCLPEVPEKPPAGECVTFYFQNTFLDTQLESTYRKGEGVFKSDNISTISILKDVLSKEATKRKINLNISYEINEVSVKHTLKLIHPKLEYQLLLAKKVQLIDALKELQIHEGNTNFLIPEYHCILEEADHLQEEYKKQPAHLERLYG
# Variants of: B1
# Conditions: with BBS7, Q8IWZ6-2
row,Variant,effect of a mutation on the interaction
1,Y498K,with no effect
2,Y498A,with no effect
3,Y498E,with no effect
4,R480E,with no effect
5,R480K,with no effect
6,R480A,with no effect
7,M483E,with no effect
8,M483K,disrupting interaction strength
9,M483A,with no effect
10,V471A,with no effect
11,V471K,with no effect
12,V471E,with no effect
13,F481K,disrupting interaction strength
14,F481A,with no effect
15,F481E,disrupting interaction strength
16,A485S,disrupting interaction strength
17,A485K,with no effect
18,A485E,with no effect
19,P495E,with no effect
20,P495A,with no effect
21,P495K,with no effect
22,D490K,with no effect
23,D490E,with no effect
24,D490A,with no effect

row,Variant,effect of a mutation on the interaction
1,I496A,with no effect
2,I496E,with no effect
3,I496K,with no effect
4,P479A,disrupting interaction strength
5,P479K,with no effect
6,P479E,disrupting interaction strength
7,P491E,with no effect
8,P491K,with no effect
9,P491A,with no effect
10,F472K,with no effect
11,F472E,with no effect
12,F472A,disrupting interaction strength
13,F472L,disrupting interaction strength
14,F501A,with no effect
15,F501E,disrupting interaction strength
16,F501S,disrupting interaction strength
17,F501K,disrupting interaction strength
18,A492K,with no effect
19,A492E,with no effect
20,Q477K,with no effect
21,Q477A,with no effect
22,Q477E,with no effect
23,V499E,disrupting interaction strength
24,V499K,disrupting interaction strength

row,Variant,effect of a mutation on the interaction
1,V499R,disrupting interaction strength
2,V499A,with no effect
3,S497K,with no effect
4,S497A,with no effect
5,S497E,with no effect
6,A507K,with no effect
7,A507E,with no effect
8,I503E,with no effect
9,I503K,disrupting interaction strength
10,I503A,with no effect
11,T487R,disrupting interaction strength
12,T487E,with no effect
13,T487K,with no effect
14,T487P,disrupting interaction strength
15,T487A,with no effect
16,R476E,with no effect
17,R476A,with no effect
18,R476K,with no effect
19,S474A,with no effect
20,S474K,with no effect
21,S474E,with no effect
22,S482K,with no effect
23,S482E,disrupting interaction strength
24,S482A,with no effect

row,Variant,effect of a mutation on the interaction
1,E473A,with no effect
2,E473K,with no effect
3,A504S,disrupting interaction strength
4,A504E,with no effect
5,A504K,with no effect
6,E505K,with no effect
7,E505A,with no effect
8,T502K,with no effect
9,T502A,with no effect
10,T502E,with no effect
11,T475K,with no effect
12,T475A,with no effect
13,T475E,with no effect
14,S488R,disrupting interaction strength
15,S488E,with no effect
16,S488A,with no effect
17,S488K,with no effect
18,H470K,with no effect
19,Y484E,with no effect
20,Y484A,disrupting interaction strength
21,Y484K,with no effect
22,Y484Q,disrupting interaction strength
23,Y484S,disrupting interaction strength
24,S493N,disrupting interaction strength

row,Variant,effect of a mutation on the interaction
1,S493E,with no effect
2,S493A,with no effect
3,S493K,with no effect
4,L486E,with no effect
5,L486A,with no effect
6,L486K,with no effect
7,R506K,with no effect
8,R506E,with no effect
9,R506A,disrupting interaction strength
10,E494K,with no effect
11,E494A,with no effect
12,L489A,with no effect
13,L489K,with no effect
14,L489E,with no effect
15,L478E,with no effect
16,L478K,disrupting interaction strength
17,L478A,disrupting interaction strength
18,N500A,with no effect
19,N500E,with no effect
20,N500K,with no effect

# More lines, now with the values ahead:
row,effect of a mutation on the interaction,Variant
1,with no effect,V511E
2,with no effect,V511A
3,with no effect,V511K
4,with no effect,G515K
5,with no effect,G515A
6,with no effect,G515E
7,with no effect,Q516A
8,with no effect,Q516K
9,with no effect,Q516E
10,with no effect,L514E
11,with no effect,L514A
12,with no effect,L514K
13,with no effect,T524K
14,with no effect,T524A
15,with no effect,T524E
16,with no effect,E522A
17,with no effect,E522K
18,with no effect,N517E
19,disrupting interaction strength,N517K
20,with no effect,N517A
21,with no effect,L520A
22,with no effect,L520E
23,with no effect,L520K
24,disrupting interaction strength,W513K
25,disrupting interaction strength,W513G
26,disrupting interaction strength,W513A
27,disrupting interaction strength,W513R

row,effect of a mutation on the interaction,Variant
1,disrupting interaction strength,W513E
2,disrupting interaction strength,F518L
3,with no effect,F518K
4,with no effect,F518E
5,with no effect,F518A
6,with no effect,R509E
7,with no effect,R509A
8,with no effect,R509K
9,with no effect,L519A
10,disrupting interaction strength,L519E
11,with no effect,L519K
12,with no effect,V512A
13,with no effect,V512K
14,with no effect,V512E
15,with no effect,Q508A
16,with no effect,Q508E
17,with no effect,Q508K
18,with no effect,D523E
19,with no effect,D523K
20,with no effect,D523A
21,with no effect,P521E
22,with no effect,P521A
23,with no effect,P521K
24,with no effect,V510A
25,with no effect,V510E
26,disrupting interaction strength,V510K
